Measured values from paper PMC8294578.

B1: BaSO4-adsorbing protein 1 (BSAP1) from Ornithodoros savignyi (natural protein)
chain: MDSEFPCPRKQQPAGNSECSYYCEMNGQWKLGKFQNGARCDYNAVKDGVCNEGLCYASGDSASNTQNQGGSRRQENEDQGDDEWDRK

How the values were obtained:
[1] = target: mannan binding lectin-associated serine proteases (MASPs) (human (endogenous in human serum))
[2] = target: factor V (FV) (human (endogenous in human plasma))
[3] = target: mannan-binding lectin (MBL) (human (endogenous in human serum)) (UniProt P11226)
[4] = target: mannan-binding lectin (MBL) (human (endogenous in human serum)) (UniProt P11226); remark: listed apart in the source

UniProt P11226, sequence (P11226 21-248): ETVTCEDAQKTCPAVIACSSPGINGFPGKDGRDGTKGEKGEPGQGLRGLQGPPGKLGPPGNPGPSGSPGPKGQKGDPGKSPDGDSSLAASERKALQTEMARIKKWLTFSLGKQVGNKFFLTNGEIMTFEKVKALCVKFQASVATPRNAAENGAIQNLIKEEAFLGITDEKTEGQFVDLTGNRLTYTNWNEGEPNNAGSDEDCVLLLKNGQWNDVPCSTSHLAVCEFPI

Molecule | EC50 of inhibition of lectin pathway activation in human serum (mannan-coated wells, ELISA, C4b deposition) [1] [µM] | decrease of prothrombinase activity in the FV(a) inhibition assay (1/1000 diluted human plasma, 20 pM FXa, 100 nM peptide) [2] [% decrease] | EC50 of inhibition of MBL deposition on mannan-coated wells from human serum (ELISA, anti-MBL antibody) [3] [µM] | EC50 of inhibition of lectin pathway activation in human serum (mannan-coated wells, ELISA, C4b deposition) [4] [µM]
D70-L104 Salp14 (from UniProt Q95WY7 91-125) (peptide) | 17 | 40 | – | –
tick salivary lectin pathway inhibitor (TSLPI) from Ixodes scapularis (natural protein) | – | – | 90 | 25
B1 | – | – | 26 | 8
